# Source: patent US20220025008A1 (FAPON BIOTECH, published 2022)
# Changes are numbered by the printed parent chain.
# T1: Recombinant NT antigen (N-terminal pro-brain natriuretic peptide, NT-proBNP) (human, UniProt P16860 27-102)
# T1 construct: domain: N-terminal pro-brain natriuretic peptide (NT-proBNP); also called recombinant NT protein; N-terminal pro-B-type natriuretic peptide
# T1 sequence (looked up): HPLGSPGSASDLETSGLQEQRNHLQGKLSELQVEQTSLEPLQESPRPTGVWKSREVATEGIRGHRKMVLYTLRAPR
# B1: Mutation 1-47 (antibody)
# heavy: QVRLQESGPSQVKPAQTLSLTCAISGFSITTYYVDWVRHTPGKPPEWLAQMTKDGNAVHQPTIRSRLSITRDTSKSQVFLKLTGVTTEDTAVYYCVRGVIDFGPGLLVTVSSASTTPPKVYPLTSCCGDTSSSIVTLGCLVSSYMPEPVTVTWNSGALTSGVHTFPAILQSSGLYSLSSVVTVPASTSGAQTFICNVAHPASSTKVDKRVEPGCPDPCKHCRCPPPELPGGPSVFIFPPKPKDTLTISGTPEVTCVVVDVGQDDPEVQFSWFVDNVEVRTARTKPREEQFNSTFRVVSALPIQHQDWTGGKEFKCKVHNEGLPAPIVRTISRTKGQAREPQVYVLAPPQEELSKSTLSVTCLVTGFYPDYIAVEWQKNGQPESEDKYGTTTSQLDADGSYFLYSRLRVDKNSWQEGDTYACVVMHEALHNHYTQKSISKPPGK
# light: QAVLTQPSSVSRSLGQTVSITCSGSSDQVGFGDYVNWFQLIPGSAPKTLIFGASSRVRGVPDRFSGSRSGNTATLTINSLQAEDEADYYCGSPNSRNYVFGSGTRLTVLSQPKSAPSVTLFPPSKEELDTNKATVVCLISDFYPGSVNVVWKADGSTINQNVKTTQASKQSNSKYAASSYLTLTGSEWKSKSSYTCEVTHEGSTVTKTVKPSECS
# B2: Mutation 1-48 (antibody, V domains shown)
# VH: QVRLQESGPSQVKPAQTLSLTCAISGFSLTTYYIDWVRHTPGKPPEWLAQMTKDGNAVHQPTIRSRLSITRDTSKSQVFLKLTGVTTEDTAVYYCVRGIIDWGPGLLVTVSS
# VL: QAVLTQPSSVSRSLGQTVSITCSGSSDQVGFGDYVNWFQLIPGSAPKTLIFGATSRIRGVPDRFSGSRSGNTATLTINSLQAEDEADYYCGSPNSRGGYVFGSGTRLTVLS
# B3: Mutation 1-50 (antibody, V domains shown)
# VH: B2 VH with I34V, I63L, I99L
# VL: B2 VL with V35I, I57V, P93A
# B4: Mutation 1-53 (antibody)
# heavy: B1 heavy with I29V, Q60N, I63V
# light: B1 light with Q28N, V35I, S54Y, P93G
# Biological target: T1, Recombinant NT antigen (N-terminal …)
# Experiment: indirect ELISA, KD calculated from half-max OD at 4 coating concentrations
# How it was run: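 Plates coated overnight at 4 °C with recombinant NT antigen at 3, 1.5, 0.75 or 0.375 μg/ml, blocked with 20% BSA. Antibody, 2-fold dilutions from 1000 to 0.977 ng/ml, was incubated 30 min at 37 °C, then detected with HRP anti-IgG, OD450/630. KD was derived from half-max OD across coating levels.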
row,Binder,Kd
1,B1,2.79 nM
2,B2,2.02 nM
3,B3,2.16 nM
4,B4,2.06 nM
